From patent publication US20030119733A1, “Compositions and methods for inhibiting hepatocyte invasion by malarial sporozoites” (New York University, priority 1992, published 2003)

Assay: Clearance studies of 125I-labeled proteins
Type: in vivo, mouse
Details: monomeric fraction of CS27IVC, or Falc-1; i.v., between 2 and 15 minutes
Method: Clearance Studies: Mice were anesthetized with ether, and injected with 10^5 cpm of ^125I-labeled CS27IVC or Falc-1 via the periorbital sinus. At two, five and fifteen minutes after injection, the mice were exsanguinated, the organs removed, rinsed in TBS, blotted dry on filter paper, and counted for radioactivity. To estimate the amounts of blood contaminating the various organs, we repeated the same procedure in mice injected with 100 μl (1.5×10^5 cpm) of ^51Cr-labeled RBC. The mean volumes of blood in the liver, spleen and kidney of the exsanguinated animals were 75, 24, and 35 μl respectively. In all other organs, the amount of blood was negligible, i.e., less than 15 μl. The percent of injected dose of CS which was retained in the various organs was calculated as described as follows: [formula]
Radiolabeled Falc-1 (FIG. 30B), and the aggregated (FIG. 30C) and monomeric (FIG. 30A) fractions of radiolabeled CS27IVC proteins were injected intravenously into the retroorbital sinuses of mice. The animals were sacrificed 2, 5 and 15 minutes later, and the amounts of CS in the blood and in various organs were measured. Additionally, the radioactivity associated with the various organs was calculated. […]

B1: Falciparum-1: Same as Falciparum-2 minus most of Region II+ (P. falciparum residues 43-348) (protein)
chain: AGTNLYNELEMNYYGKQENWYSLKKNSRSLGENDDGNNNNGDNGREGKDEDKRDGNNEDNEKLRKPKHKKLKQPGDGNPDPNANPNVDPNANPNVDPNANPNVDPNANPNANPNANPNANPNANPNANPNANPNANPNANPNANPNANPNANPNANPNANPNANPNVDPNANPNANPNANPNANPNANPNANPNANPNANPNANPNANPNANPNANPNANPNANPNANPNANPNANPNANPNANPNKNNQGNGQGHNMPNDPNRNVDENANANNAVKNNNNEEPSDKHIEQYLKKIKNSISTEWSP
- injected counts recovered in the blood and in various organs: about 40%
